# Reference: patent publication US20240150490A1 (MABPRO A S, published 2024)
# Residue numbers refer to the chain shown, from its start.
# B1: CA9hu-2_HC1LC5 (antibody, V domains shown)
# VH: EVQLVESGGGLVQPGGSLKLSCAASGFTFNTNAMHWVRQASGKGLEWVGRIRSKSNNYTTYYADSVKDRFTISRDDSKNTAYLQMNSLKTEDTAVYYCVCGSWFAYWGQGTLVTVSS
# VL: DIVMTQSPDSLAVSLGERATINCKSSQSLLNSSNQKNYLAWYQQKPGQPPKLLIYFTSTRQSGVPDRFSGSGSGTDFTLTISSLQAEDVAVYYCQQHYSIPLTFGQGTKLEIK
# notes: Humanized from murine IV/18; also called HC1LC5 (CA9hu-2)
# B2: CA9hu-2_HC4LC2 (antibody, V domains shown)
# VH: B1 VH with L11V, G16R, K19R, S41P, G49A, D76N, A81L, K89R, T90A
# VL: B1 VL with Y42F, K51N, L53V, S82N, Y93F, K109Q, L110V
# notes: Humanized from murine IV/18; also called HC4LC2 (CA9hu-2)
# B3: CA9hu-2_HC3LC2 (antibody, V domains shown)
# VH: QVQLVESGGGVVQPGGSLRLSCAASGFTFNTNAMHWVRQAPGRGLEWVARIRSKSNNYTTYYADSVKDRFTISRDNSKNTLYLQVNSLRAEDTAVYYCVCGSWFAYWGQGTLVTVSS
# VL: B1 VL with Y42F, K51N, L53V, S82N, Y93F, K109Q, L110V
# notes: Humanized from murine IV/18; also called HC3LC2 (CA9hu-2)
# B4: CA9hu-2_HC3LC1 (antibody, V domains shown)
# VH: B3 VH
# VL: B1 VL with I2V, A19V, P49S
# notes: Humanized from murine IV/18; also called HC3LC1 (CA9hu-2)
# B5: CA9hu-2_HC3LC3 (antibody, V domains shown)
# VH: B3 VH
# VL: B1 VL with V3Q, Y93F, L110V
# notes: Humanized from murine IV/18; also called HC3LC3 (CA9hu-2)
# B6: CA9hu-2_HC3LC4 (antibody, V domains shown)
# VH: B3 VH
# VL: B1 VL with Y42F, L52V, S69T
# notes: Humanized from murine IV/18; also called HC3LC4 (CA9hu-2)
# B7: CA9hu-2_HC1LC3 (antibody, V domains shown)
# VH: B1 VH
# VL: B1 VL with V3Q, Y93F, L110V
# notes: Humanized from murine IV/18; also called HC1LC3 (CA9hu-2)
# B8: CA9hu-2_HC4LC3 (antibody, V domains shown)
# VH: B3 VH with Q1E, G16R, R43K, V85M
# VL: B1 VL with V3Q, Y93F, L110V
# notes: Humanized from murine IV/18; also called HC4LC3 (CA9hu-2)
# B9: CA9hu-2_HC2LC1 (antibody, V domains shown)
# VH: B1 VH with N79S
# VL: B1 VL with I2V, A19V, P49S
# notes: Humanized from murine IV/18; also called HC2LC1 (CA9hu-2)
# B10: CA9hu-2_HC3LC5 (antibody, V domains shown)
# VH: B3 VH
# VL: B1 VL
# notes: Humanized from murine IV/18; also called HC3LC5 (CA9hu-2)
# B11: CA9hu-2_HC1LC4 (antibody, V domains shown)
# VH: B1 VH
# VL: B1 VL with Y42F, L52V, S69T
# notes: Humanized from murine IV/18; also called HC1LC4 (CA9hu-2)
# B12: CA9hu-2_HC4LC5 (antibody, V domains shown)
# VH: B3 VH with Q1E, G16R, R43K, V85M
# VL: B1 VL
# notes: Humanized from murine IV/18; also called HC4LC5 (CA9hu-2)
# B13: CA9hu-2_HC5LC5 (antibody, V domains shown)
# VH: B1 VH with L112T
# VL: B1 VL
# notes: Humanized from murine IV/18; also called HC5LC5 (CA9hu-2)
# B14: CA9hu-2_HC4LC4 (antibody, V domains shown)
# VH: B3 VH with Q1E, G16R, R43K, V85M
# VL: B1 VL with Y42F, L52V, S69T
# notes: Humanized from murine IV/18; also called HC4LC4 (CA9hu-2)
# B15: CA9hu-2_HC5LC3 (antibody, V domains shown)
# VH: B1 VH with L112T
# VL: B1 VL with V3Q, Y93F, L110V
# notes: Humanized from murine IV/18; also called HC5LC3 (CA9hu-2)
# B16: CA9hu-2_HC2LC3 (antibody, V domains shown)
# VH: B1 VH with N79S
# VL: B1 VL with V3Q, Y93F, L110V
# notes: Humanized from murine IV/18; also called HC2LC3 (CA9hu-2)
# B17: CA9hu-2_HC2LC4 (antibody, V domains shown)
# VH: B1 VH with N79S
# VL: B1 VL with Y42F, L52V, S69T
# notes: Humanized from murine IV/18; also called HC2LC4 (CA9hu-2)
# B18: CA9hu-2_HC5LC4 (antibody, V domains shown)
# VH: B1 VH with L112T
# VL: B1 VL with Y42F, L52V, S69T
# notes: Humanized from murine IV/18; also called HC5LC4 (CA9hu-2)
# B19: CA9hu-2_HC1LC2 (antibody, V domains shown)
# VH: B1 VH
# VL: B1 VL with Y42F, K51N, L53V, S82N, Y93F, K109Q, L110V
# notes: Humanized from murine IV/18; also called HC1LC2 (CA9hu-2)
# B20: CA9hu-2_HC5LC1 (antibody, V domains shown)
# VH: B1 VH with L112T
# VL: B1 VL with I2V, A19V, P49S
# notes: Humanized from murine IV/18; also called HC5LC1 (CA9hu-2)
# B21: CA9hu-2_HC5LC2 (antibody, V domains shown)
# VH: B1 VH with L112T
# VL: B1 VL with Y42F, K51N, L53V, S82N, Y93F, K109Q, L110V
# notes: Humanized from murine IV/18; also called HC5LC2 (CA9hu-2)
# B22: CA9hu-2_HC1LC1 (antibody, V domains shown)
# VH: B1 VH
# VL: B1 VL with I2V, A19V, P49S
# notes: Humanized from murine IV/18; also called HC1LC1 (CA9hu-2)
# B23: CA9hu-2_HC2LC5 (antibody, V domains shown)
# VH: B1 VH with N79S
# VL: B1 VL
# notes: Humanized from murine IV/18; also called HC2LC5 (CA9hu-2)
# B24: CA9hu-2_HC2LC2 (antibody, V domains shown)
# VH: B1 VH with N79S
# VL: B1 VL with Y42F, K51N, L53V, S82N, Y93F, K109Q, L110V
# notes: Humanized from murine IV/18; also called HC2LC2 (CA9hu-2)
# B25: CA9hu-2_HC4LC1 (antibody, V domains shown)
# VH: B3 VH with Q1E, G16R, R43K, V85M
# VL: B1 VL with I2V, A19V, P49S
# notes: Humanized from murine IV/18; also called HC4LC1 (CA9hu-2)
# B26: CA9hu-2 chimeric HC0LC0 (antibody, V domains shown)
# VH: EVQLVETGGGLVQPKGSLKLSCAASGFTFNTNAMHWVRQAPGKGLEWVARIRSKSNNYTTYYADSVKDRFTISRDDSQSMLYLQMNNLKTEDTAMYYCVCGSWFAYWGQGTLVTVSA
# VL: DIVMTQSPSSLAMSLGQKVTMSCKSSQSLLNSSNQKNYLAWFQQKPGQSPKLLVYFTSTRQSGVPDRFIGSGSGTDFTLTISSVQAEDLADYFCQQHYSIPLTFGAGTKLELK
# notes: also called HC0LC0 (CA9hu-2)
# Molecular target: CA IX expressed by cells (C-33a_CA IX transfectants; hypoxic BT-20, JIMT-1, 8-MG-BA and 42-MG-BA cells) (human, UniProt Q16790 38-459)
# Assay: cell-based or functional assay
row,Binder,"ADCC reporter luminescence, C-33a_CA IX against C-33a_neo cells [times]"
1,B1,2
2,B2,2
3,B3,2
4,B4,2
5,B5,2
6,B6,2
7,B7,2
8,B8,2
9,B9,2
10,B10,2
11,B11,2
12,B12,2
13,B13,2
14,B14,2
15,B15,2
16,B16,2
17,B17,2
18,B18,2
19,B19,2
20,B20,2
21,B21,2
22,B22,2
23,B23,2
24,B24,2
25,B25,2

# Molecular target: recombinant human CA IX (human, UniProt Q16790 38-414)
# Assay: SPR (Biacore T200), antibody captured on CM5 chip, rh CA IX in flow, 25 C
# Experimental: In order to determinate the antigen-binding affinity of humanized variants, measurements of affinity constant (KD) for antibodies binding to CA IX were performed by SPR using a Biacore 2000 (T200 in case of CA9hu-2) instrument (GE Healthcare, Piscataway, NJ USA). Each humanized antibody variant was captured on the CM5 sensor chip and recombinant human CA IX (rh CA IX; 42 kDa; R&D Systems, Inc., Minneapolis MN, USA) protein as an antigen was added to the buffer flowing over the chip. The setting details of quantitative interaction analysis between humanized antibodies and rh CA IX were as follows: flow rate 30 μl/min; analysis temperature 25° C.; analysis buffer (10mM HEPES pH 7.4, 150 mM NaCl, […], 0.05% Tween 20). Results from SPR analysis are expressed as the equilibrium dissociation constant (KD) (Table 7).
row,Binder,Kd [nM]
1,B26,13.1
2,B1,71.3
3,B2,32.7
4,B3,40.1
5,B4,37.4
6,B5,62.3
7,B6,73.1
8,B7,70.5
9,B8,44.2
10,B9,53.9
11,B10,54.3
12,B11,74.9
13,B12,41.9
14,B13,65.1
15,B14,74.6
16,B15,57.2
17,B16,98.3
18,B17,60.1
19,B18,47.3
20,B19,56.1
21,B20,69.8
22,B21,105
23,B22,44
24,B23,60.5
25,B24,87.7
26,B25,39.6
